Source: paper PMC5013986 (RNA Biology, 2016)
Like-named read-outs stand apart in the source and are kept apart here.

B1: Strep-tagged GapA lacking SR1P (enzyme, B. subtilis, UniProt P09124 1-335, looked up)
chain: MAVKVGINGFGRIGRNVFRAALNNPEVEVVAVNDLTDANMLAHLLQYDSVHGKLDAEVSVDGNNLVVNGKTIEVSAERDPAKLSWGKQGVEIVVESTGFFTKRADAAKHLEAGAKKVIISAPANEEDITIVMGVNEDKYDAANHDVISNASCTTNCLAPFAKVLNDKFGIKRGMMTTVHSYTNDQQILDLPHKDYRRARAAAENIIPTSTGAAKAVSLVLPELKGKLNGGAMRVPTPNVSLVDLVAELNQEVTAEEVNAALKEAAEGDLKGILGYSEEPLVSGDYNGNKNSSTIDALSTMVMEGSMVKVISWYDNESGYSNRVVDLAAYIAKKGL
B2: GapA_(Strep)/SR1P (Strep-tagged GapA carrying SR1P) (complex)
chain 1: MAVKVGINGFGRIGRNVFRAALNNPEVEVVAVNDLTDANMLAHLLQYDSVHGKLDAEVSVDGNNLVVNGKTIEVSAERDPAKLSWGKQGVEIVVESTGFFTKRADAAKHLEAGAKKVIISAPANEEDITIVMGVNEDKYDAANHDVISNASCTTNCLAPFAKVLNDKFGIKRGMMTTVHSYTNDQQILDLPHKDYRRARAAAENIIPTSTGAAKAVSLVLPELKGKLNGGAMRVPTPNVSLVDLVAELNQEVTAEEVNAALKEAAEGDLKGILGYSEEPLVSGDYNGNKNSSTIDALSTMVMEGSMVKVISWYDNESGYSNRVVDLAAYIAKKGL
chain 2: MGTIVCQDCNEAIHYFEDEKVTTLYGTCCGQCQCPVDEE

Tests used:
[1] = biological target: T1, His-tagged RNase J1 (B. subtilis, UniProt Q45493 1-555); experiment: far-Western, overlay or dot blot
T1 sequence (Q45493 whole entry): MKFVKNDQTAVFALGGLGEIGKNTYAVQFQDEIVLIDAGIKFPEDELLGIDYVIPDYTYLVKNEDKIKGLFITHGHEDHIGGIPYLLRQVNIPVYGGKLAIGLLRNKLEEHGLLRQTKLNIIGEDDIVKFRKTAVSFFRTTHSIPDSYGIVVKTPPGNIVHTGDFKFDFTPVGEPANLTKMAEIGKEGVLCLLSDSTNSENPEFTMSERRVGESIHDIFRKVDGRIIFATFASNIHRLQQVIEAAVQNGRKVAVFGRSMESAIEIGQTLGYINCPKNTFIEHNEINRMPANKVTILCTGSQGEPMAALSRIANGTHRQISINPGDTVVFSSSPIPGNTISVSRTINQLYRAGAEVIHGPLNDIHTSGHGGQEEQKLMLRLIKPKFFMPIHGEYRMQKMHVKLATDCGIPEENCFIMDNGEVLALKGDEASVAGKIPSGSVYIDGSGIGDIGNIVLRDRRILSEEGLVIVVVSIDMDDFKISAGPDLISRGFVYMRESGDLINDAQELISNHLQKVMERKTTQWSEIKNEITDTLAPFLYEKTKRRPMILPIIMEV

[2] = biological target: T1, His-tagged RNase J1; experiment: far-Western, overlay or dot blot; remark: listed apart in the source
[3] = biological target: B1; experiment: pull-down
[4] = biological target: B2; experiment: pull-down

## B1
[1]
  binding result: binds

## B2
[2]
  binding result: binds

B3: untagged GapA (enzyme, UniProt P09124 1-335, looked up)
chain: MAVKVGINGFGRIGRNVFRAALNNPEVEVVAVNDLTDANMLAHLLQYDSVHGKLDAEVSVDGNNLVVNGKTIEVSAERDPAKLSWGKQGVEIVVESTGFFTKRADAAKHLEAGAKKVIISAPANEEDITIVMGVNEDKYDAANHDVISNASCTTNCLAPFAKVLNDKFGIKRGMMTTVHSYTNDQQILDLPHKDYRRARAAAENIIPTSTGAAKAVSLVLPELKGKLNGGAMRVPTPNVSLVDLVAELNQEVTAEEVNAALKEAAEGDLKGILGYSEEPLVSGDYNGNKNSSTIDALSTMVMEGSMVKVISWYDNESGYSNRVVDLAAYIAKKGL
[1]
  binding result: binds

B4: RNase J1 (enzyme)
chain: not shown
[3]
  GapA-RNase J1 ratio: ~200 GapA per RNase J1
[4]
  GapA/SR1P-RNase J1 ratio: 80 GapA/SR1P per RNase J1
